In article PMC4014539, “PEG-Protein Interaction Induced Contraction of NalD Chains” (PLoS ONE, 2014):

Biological target: the molecule itself
Assay: AUC; Beckman Optima XL-I, UV detection at 280 nm, 45,000 rpm, 20°C; NalD in aqueous solution before addition of PEG3350; apparent molar masses from peak positions

B1: NalD (natural protein)
chain: MRRTKEDSEKTRTAILLAAEELFLEKGVSHTSLEQIARAAGVTRGAVYWHFQNKAHLFNEMLNQVRLPPEQLTERLSGCDGSDPLRSLYDLCLEAVQSLLTQEKKRRILTILMQRCEFTEELREAQERNNAFVQMFIELCEQLFARDECRVRLHPGMTPRIASRALHALILGLFNDWLRDPRLFDPDTDAEHLLEPMFRGLVRDWGQASSAP
notes: NalD, TetR family repressor of the MexAB-OprM multi-drug efflux operon, Pseudomonas aeruginosa PAO1; a protein of 212 amino acids; nalD gene amplified by PCR and cloned into PET-30a between NdeI and XhoI; also called NalD protein; regulator of MexAB-OprM multi-drug efflux systems; source: E. coli BL21 star (DE3), purified (SFF, Heparin, Ni-NTA, monoQ columns)
binding result: binds
